Measured values as given in the DeepSol protein solubility set.

Experiment: soluble on expression in E. coli; label from the status in PepcDB or PDB records

Sequence	soluble on expression in E. coli
MGSDKIHHHHHHMLCALKHLFQGEPQQQAVSGLISTSYTDNDGETRISLKLEPRYENAGEVITKLVELDADPQVVRVGIQSSSIASFGSLENLVNAYGTLYRYLKDNYDSPAKLKKYWGYLANDVVFIQISTDVSSALKIFETINERGVGLNPMDLLKNLLFTQVGQAQFTQLKDEWKKITRPLEKGKEKPLFDHFVMQLENFLFYYIFTKTPTRDMERSFSQWANELRAIADAAECRCHNQWQGIDS	not soluble
MDVASALEGNWEFRVDHKNIKIFSSKIRGSQVLGFKGEAVFEASLRKLISLFHDFGNYGKWVHQLSEMEVLHKSDELDYVVRQVLNTPWPIPKREMIVRTALHASEEGALALTMTGIPDYVPLKPDFHRVREARGGWILMPVDGGKVHVTFVMHLDPGSDIPPALSNAALFEVPFYSLLKMRDLAQNPSYKPAWPSVVDNHVTIIEDVPDKHLEHHHHHH	soluble
MDSSEVVKVKQASIPAPGSILSQPNTEQSPAIVLPFQFEATTFGTAETAAQVSLQTADPITKLTAPYRHAQIVECKAILTPTDLAVSNPLTVYLAWVPANSPATPTQILRVYGGQSFVLGGAISAAKTIEVPLNLDSVNRMLKDSVTYTDTPKLLAYSRAPTNPSKIPTASIQISGRIRLSKPMLIAN	soluble
MSLDNKRIEELKEVLKSLNKIGITEELRKEALDIVKNINPIELSIAEQQLIEEGMNPQDLRHLCDIHMEVLKDELTKVKASTSKGHVLYTLIEEHDKILDFLKELEEVNSNIQKTENYDEAKDETHRLYNLAESILDAENHHQREEKVLFLEMEKREITGPTRIMKMEHDDLRAKKKELKMLSKSVDTMDFREFKSKVDEVSKYIIFNLRDHIFKENYILYPSALEAIKDKDMWDDMKRRCDEVGYCSFTFSNEGHHHHHH	soluble
IAALSRDITPQQDGSVIVDASITIRHLNRMMGWSLPLIGPRTLSGLIIEHLGYIPPPDSCLVIDHYHIEILRVSDNMIRGVKMIKTN	not soluble
METDNVLKRILEIEHGFVHILDAAKEILSSSSEERSFAIASEFFDHEAYQPRMLATAILGHLAGTNSEALLFLKDRVSLDMNWRVQEMLAKAFDTFCKEQGYEKSLPVIREWLDSDNANVVRAVTEGLRIWTSRPFFKENPCLAIEWLSRHRGHESEYVRKSVGNALKDISKKHKESVAEELKKWDLSDPLVLFTYKHASKHPDKDIKKQ	not soluble
MSKLELLPAVDVRDGQAVRLVHGESGTETSYGSPLEAALAWQRSGAEWLHLVDLDAAFGTGDNRALIAEVAQAMDIKVELSGGIRDDDTLAAALATGCTRVNLGTAALETPEWVAKVIAEHGDKIAVGLDVRGTTLRGRGWTRDGGDLYETLDRLNKEGCARYVVTDIAKDGTLQGPNLELLKNVCAATDRPVVASGGVSSLDDLRAIAGLVPAGVEGAIVGKALYAKAFTLEEALEATSLEPG	soluble
MSAPDLFVAHFREAVPYIRQMRGKTLVAGIDDRLLEGDTLNKLAADIGLLSQLGIRLVLIHGARHFLDRHAAAQGRTPHYCRGLRVTDETSLEQAQQFAGTVRSRFEAALCGSVSGFARAPSVPLVSGNFLTARPIGVIDGTDMEYAGVIRKTDTAALRFQLDAGNIVWLPPLGHSYSGKTFYLDMLQTAASAAVSLQAEKLVYLTLSDGISRPDGTLAETLSAQEAQSLAEHAGGETRRLISSAVAALEGGVHRVQILNGAADGSLLQELFTRNGIGTSIAKEAFVSIRQAHSGDIPHIAALIRPLEEQGILLHRSREYLENHISEFSILEHDGNLYGCAALKTFAEADCGEIACLAVSPQAQDGGYGERLLAHIIDKARGIGISRLFALSTNTGEWFAERGFQTASEDELPETRRKDYRSNGRNSHILVRRLHR	not soluble
MSLSNTELILIRVTGEDRPGLTASVTEILAKYDATILDIGQADIHNTLSLGILFRSEERHSGFIMKELLFKASSLGVTIRFEPIGTDQYENWVGMQGKNRYILTVLGRKLSARQISAATRVLAEQDLNIDAIKRLTGRIPLDEDKTDTRTRACIEFSVRGTPKDRIAMQERLMQLASEQEMDFSFQQDNMYRRMRRLICFDMDSTLIETEVIDELAIRAGVGDEVKAITESAMRGEIDFTESFTRRVALLKGLDESVMQEIAESLPITEGVDRLMYVLKKYGYKIAILSGGFTYFGQYLQKKYGIDYVYANELEIVDGKLTGRYLGDVVDGKRKAELLRLIAQVEKVDIAQTIAVGDGANDLPMLGIAGLGIAFHAKPKVVANAKQSINTIGLDGVLYFLGFKDSYLNEGHHHHHH	soluble
